These results are taken from article PMC4966837 (mAbs, 2015).

This assay addresses human βc receptor on cells (TF-1 cells, human neutrophils, human eosinophils) (Homo sapiens, UniProt P32927). The experiment in a line: radioligand binding.

human βc receptor on cells (TF-1 cells, human neutrophils, human eosinophils), sequence (P32927 17-897): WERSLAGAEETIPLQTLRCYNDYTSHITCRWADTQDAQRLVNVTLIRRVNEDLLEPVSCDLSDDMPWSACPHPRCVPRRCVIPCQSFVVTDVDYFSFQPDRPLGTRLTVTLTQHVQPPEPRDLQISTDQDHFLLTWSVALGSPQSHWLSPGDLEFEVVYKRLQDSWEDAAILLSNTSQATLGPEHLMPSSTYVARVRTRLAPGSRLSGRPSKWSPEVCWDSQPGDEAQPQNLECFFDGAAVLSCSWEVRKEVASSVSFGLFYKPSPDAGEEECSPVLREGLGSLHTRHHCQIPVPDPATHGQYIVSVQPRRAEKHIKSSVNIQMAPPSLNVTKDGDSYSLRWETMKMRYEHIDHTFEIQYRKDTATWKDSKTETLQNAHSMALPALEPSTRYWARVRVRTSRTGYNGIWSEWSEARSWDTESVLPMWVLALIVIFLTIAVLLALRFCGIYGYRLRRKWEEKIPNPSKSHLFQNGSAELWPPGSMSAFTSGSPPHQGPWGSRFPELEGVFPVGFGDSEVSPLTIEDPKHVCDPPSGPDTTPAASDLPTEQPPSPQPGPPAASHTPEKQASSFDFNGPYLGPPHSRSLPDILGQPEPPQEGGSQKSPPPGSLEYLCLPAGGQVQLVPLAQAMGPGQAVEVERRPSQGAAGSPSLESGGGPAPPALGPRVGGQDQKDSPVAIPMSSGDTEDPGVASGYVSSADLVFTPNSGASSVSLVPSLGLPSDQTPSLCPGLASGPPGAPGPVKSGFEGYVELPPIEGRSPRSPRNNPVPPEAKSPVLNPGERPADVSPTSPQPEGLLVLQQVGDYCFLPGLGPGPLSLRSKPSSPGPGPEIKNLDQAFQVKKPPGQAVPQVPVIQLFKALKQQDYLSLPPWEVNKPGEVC

B1: CSL311 (human IgG4-kappa monoclonal antibody) (antibody, V domains shown)
VH: EVQLLESGGGLVQPGGSLRLSCAASGFTFPWYRVHWVRQAPGKGLEWVSSIRSSGGFPYYNYKVKGRFTISRDNSKNTLYLQMNSLRAEDTAVYYCARFYDSFFDIWGQGTMVTVSS
VL: DIQMTQSPSSVSASVGDRVTITCRASQGISSWLAWYQQKPGKAPKLLIYAASSLQSGVPSRFSGSGSGTDFTLTISSLQPEDFATYYCQQANSFPITFGQGTRLEIK
As for B1, the dissociation constant Kd (commonly the concentration at which binding is half-saturated) is 0.25 to 0.73 nM.

B2: CSL311 Fab fragment (Fab, V domains shown)
VH: B1 VH
VL: B1 VL
B2 gave a Kd of 0.38 to 0.67 nM.
